# Data from patent US5571894, “Recombinant antibodies specific for a growth factor receptor” (Ciba-Geigy Corporation, dated 1996).
# B1: mouse monoclonal antibody FWP51 (antibody, V domains shown)
# VH: QVQLQQSGAELVRPGTSVKLSCKASDYTFTSYWMNWVKQRPGQGLEWIGMIDPSDSETQYNQMFKDKAALTVDKSSNTAYMQLSSLTSEDSAVYYCAKGGASGDWYFDVWGQGTTVTVSS
# VL: DIQLTQSPSSLSASLGGEVTITCKASQDIKKYIAWYQHKPGKSPRLLIHYTSVLQPGIPSRFSGSGSGRDYSFSIHNLEPEDIATYYCLHYDYLYTFGGGTKLEI
# B2: mouse monoclonal antibody FRP5 (antibody, V domains shown)
# VH: QVQLQQSGPELKKPGETVKISCKASGYPFTNYGMNWVKQAPGQGLKWMGWINTSTGESTFADDFKGRFDFSLETSANTAYLQINNLKSEDMATYFCARWEVYHGYVPYWGQGTTVTVSS
# VL: DIQLTQSHKFLSTSVGDRVSITCKASQDVYNAVAWYQQKPGQSPKLLIYSASSRYTGVPSRFTGSGSGPDFTFTISSVQAEDLAVYFCQQHFRTPFTFGSGTKLEI
# Legend:
# human c-erbB-2 protein [1] = target: T1, human c-erbB-2 protein (human, UniProt P04626); assay: flow cytometry on SKBR3 cells
# [2] = target: 185 kD c-erbB-2 protein from SKBR3 cell lysates (human, UniProt P04626); assay: immunoprecipitation from SKBR3 extract, blot detected with antiserum 21N
# human c-erbB-2 protein [3] = target: T1, human c-erbB-2 protein; assay: immunofluorescent staining of fixed HC11 cells transfected with human c-erbB-2 (clone R1#11), non-transfected HC11 as control; screen of hybridoma supernatants
Binder,binding result (human c-erbB-2 protein [1]),binding result [2],binding result (human c-erbB-2 protein [3])
B1,binds,binds,
B2,,binds,binds
